Test results from patent publication US20240327505A1 (published 2024).
Numbering of substitutions follows the chain as printed.

What was measured:
SARS-CoV-2 S2 protein = SARS-CoV-2 S2 protein (SARS-CoV-2, UniProt P0DTC2 686-1213)
[1] = target: SARS-CoV-2 spike protein on fully infectious (replication-competent) SARS-CoV-2 virus (SARS-CoV-2, UniProt P0DTC2 14-1273); experiment: cell-based or functional assay
[2] = target: SARS-CoV-1 spike protein on pseudovirus (SARS-CoV-1, UniProt P59594 14-1255); experiment: cell-based or functional assay
[3] = target: SARS-CoV-2 Wuhan-1 full-length Spike protein on pseudovirus (SARS-CoV-2, UniProt P0DTC2 14-1273); experiment: cell-based or functional assay
[4] = target: SARS-CoV-2 spike receptor-binding domain (RBD) (SARS-CoV-2, UniProt P0DTC2 319-541)
[5] = target: SARS-CoV-2 spike S1 protein (SARS-CoV-2, UniProt P0DTC2 16-685)
[6] = target: SARS-CoV-2 spike receptor-binding domain (RBD) (SARS-CoV-2, UniProt P0DTC2 319-541); remark: listed apart in the source
[7] = target: SARS-CoV-2 spike S1 protein (SARS-CoV-2, UniProt P0DTC2 16-685); remark: listed apart in the source
[8] = target: SARS-CoV-2 Spike (S) trimer (SARS-CoV-2, UniProt P0DTC2 16-1213); experiment: ELISA on coated S trimer, 1:50

B1: AB-009631 (antibody, V domains shown)
VH: EVQLVESGGGLVQPGGSLRLSCAASGFNFSFYWMSWVRQAPGKGLEWVANIKQDGSEKYYVDSVKGRFTISRDNAKNSLYLQMNSLRAEDTAVYYCARLSGGSWYFDYWGQGTLVTVSS
VL: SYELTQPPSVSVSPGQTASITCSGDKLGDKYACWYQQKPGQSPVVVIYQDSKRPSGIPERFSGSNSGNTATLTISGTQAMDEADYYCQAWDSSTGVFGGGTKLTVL
Kd (SARS-CoV-2 S2 protein): 0.0273 nM
koff (SARS-CoV-2 S2 protein): 3.31e-07 s⁻¹
kon (SARS-CoV-2 S2 protein): 12100 M⁻¹ s⁻¹

B2: AB-009676 (antibody, V domains shown)
VH: QVQLQQWGAGLLKPSETLSLTCAVYGGSFSGYYWSWIRQPPGKGLEWIGEINHSGSTNYNPSLKSRVTISVDTSKNQFSLKLSSVTAADTAVYYCARLSRQWLVRPHIYYFDYWGQGTLVTVSS
VL: DIQMTQSPSTLSASVGDRVTITCRASQSVSSYLNWYQQKPGKAPKLLIYAASSLQSGVPSRFSGSGSGTDFTLTISSLQPEDFATYFCQQSYSTPRTFGQGTKLEIK
Kd (SARS-CoV-2 S2 protein): 0.0456 nM
koff (SARS-CoV-2 S2 protein): 3.12e-07 s⁻¹
kon (SARS-CoV-2 S2 protein): 6840 M⁻¹ s⁻¹

B3: AB-009734 (antibody, V domains shown)
VH: QVHLVQSGAEVKTPGASVRVSCKASGYTFTSHYMHWVRQAPGQGLEWMGLINPSGSGTAYPQHFQGRVTMTRDTSTTTDYMDLSSLRSEDTAMYFCARMERSGAFDLWGQGTMVTVSS
VL: EIVLTQSPGTLSLSPGERATLSCRASQTISSRYLAWYYQKPGQAPRLLIQGSSIRATGIPDRFSGSGSGTDFTLTISRLEPEDFAVYYCQHYGSSPPMYTFGQGTKLEIK
Neutralization (Infectious virus; (µg/mL)) [1]: 21.4 µg/mL
Pseudovirus Neturalization [2]: > 50 µg/mL
Pseudovirus Neturalization [3]: 42.4 µg/mL

B4: AB-009615 (antibody, V domains shown)
VH: QVQLVESGGGVVQPGRSLRLSCAASGFTFSSYGMHWVRQAPGKGLEWVAVIWYDGSNKYYADSVKGRFTISRDNSKNTLYLQMNSLRAEDTAVYYCAKVGSPYCSGGSCYSGYFDYWGQGTLVTVSS
VL: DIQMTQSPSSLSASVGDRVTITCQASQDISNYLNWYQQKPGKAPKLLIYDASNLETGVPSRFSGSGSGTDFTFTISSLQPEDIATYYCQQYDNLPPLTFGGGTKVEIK
Neutralization (Infectious virus; (µg/mL)) [1]: 12.3 µg/mL
Pseudovirus Neturalization [2]: > 50 µg/mL
Pseudovirus Neturalization [3]: 27.7 µg/mL

B5: AB-009610 (antibody, V domains shown)
VH: QVQLVQSGAEVKKPGSSVKVSCKASGGTFSNYAISWVRQAPGQGLEWMGRIIPILGIANYAQKFQGRVTITADKSTSTAYMELSSLRSEDTAVYYCATTPYYYDSSGYYLDYWGQGTLVTVSS
VL: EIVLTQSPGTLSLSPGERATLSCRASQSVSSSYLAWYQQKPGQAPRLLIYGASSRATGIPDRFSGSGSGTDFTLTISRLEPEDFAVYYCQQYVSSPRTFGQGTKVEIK
Kd [4]: 21.6 nM
koff [4]: 0.00107 s⁻¹
kon [4]: 49500 M⁻¹ s⁻¹
Kd [5]: 111 nM
koff [5]: 0.00456 s⁻¹
kon [5]: 41100 M⁻¹ s⁻¹

B6: AB-009760 (antibody, V domains shown)
VH: EVQLVQSGAEVKKPGESLKISCKGSGYSFTSYWIGWVRQMPGKGLEWMGIIYPGDSDTRYSPSFQGQVTISADKSISTAYLQWSSLKASDTAMYYCARSRSSDYFDYWGQGTLVTVSS
VL: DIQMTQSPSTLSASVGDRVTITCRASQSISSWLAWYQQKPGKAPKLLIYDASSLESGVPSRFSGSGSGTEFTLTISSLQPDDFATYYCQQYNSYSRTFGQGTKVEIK
Neutralization (Infectious virus; (µg/mL)) [1]: 32.8 µg/mL
Pseudovirus Neturalization [2]: > 50 µg/mL
Pseudovirus Neturalization [3]: 4.1 µg/mL

B7: AB-010020 (antibody, V domains shown)
VH: QMQLVQSGPEVKKPGTSVKVSCKASGFTFTSSAVQWVRQARGQRLEWIGWIVVGSGNTNYAQKFQERVTITRDMSTSTAYMELSSLRSEDTAVYYCAAPACSSTSCYDGFDIWGQGTMVTVSS
VL: not shown
Kd [4]: 2.16 nM
koff [4]: 0.00212 s⁻¹
kon [4]: 980000 M⁻¹ s⁻¹
Kd [5]: 13.5 nM
koff [5]: 0.0069 s⁻¹
kon [5]: 512000 M⁻¹ s⁻¹

B8: AB-010021 (antibody, V domains shown)
VH: B7 VH with P99V, A100Y, S103G, T104G, Y107L, G109A
VL: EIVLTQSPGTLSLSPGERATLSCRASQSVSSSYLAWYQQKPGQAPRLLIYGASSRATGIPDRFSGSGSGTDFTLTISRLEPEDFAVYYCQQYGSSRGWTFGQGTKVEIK
Kd [4]: 12.4 nM
koff [4]: 0.00275 s⁻¹
kon [4]: 221000 M⁻¹ s⁻¹
Kd [5]: 12.5 nM
koff [5]: 0.00214 s⁻¹
kon [5]: 171000 M⁻¹ s⁻¹

B9: AB-009661 (antibody, V domains shown)
VH: QVQLVESGGGVVQPGRSLRLSCAASGFTFSSYGMHWVRQAPGKGLEWVAVISYDGSNKYYADSVKGRFTISRDNSKNTLYLQMNSLRAEDTAVYYCAKDYGDYGGMDVWGQGTTVTVSS
VL: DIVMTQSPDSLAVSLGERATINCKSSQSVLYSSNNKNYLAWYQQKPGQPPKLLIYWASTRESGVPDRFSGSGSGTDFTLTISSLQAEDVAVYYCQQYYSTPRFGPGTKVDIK
Neutralization (Infectious virus; (µg/mL)) [1]: 20.6 µg/mL
Pseudovirus Neturalization [2]: > 50 µg/mL
Pseudovirus Neturalization [3]: > 50 µg/mL

B10: AB-009710 (antibody, V domains shown)
VH: LVQLIQSGAEVVKPGSSVKVSCTASGGSYSSYTLSWVRQAPGQGVEWLGRISPVLNTTYYAQKLEGRVTMTADESTSTVYMQLSSLRSEDTAVYYCARLASMNGVDIWGQGTSVTVSS
VL: EIVLTQSPGTLSLSPGERATLSCRASQSVYGSYLAWYQQKPGQAPRLLIYGGSSRATGIPDRFSGSGSGTDFTLTISRLEPEDFAVYYCHQYGTSRYSFGQGTKLDIK
Kd (SARS-CoV-2 S2 protein): 46.8 nM
koff (SARS-CoV-2 S2 protein): 0.000591 s⁻¹
kon (SARS-CoV-2 S2 protein): 12600 M⁻¹ s⁻¹

B11: AB-009346 (antibody, V domains shown)
VH: EVQLVESGGGVVRPGGSLRLSCAASGFTFDDYGMSWVRQAPGKGLEWVSGINWNGGSTGYADSVKGRFTISRDNAKNSLYLQMNSLRAEDTALYYCARWPLLGISGYYHYYMDVWGKGTTVTVSS
VL: QSALTQPRSVSGSPGQSVTISCTGTSSDVGGYNYVSWYQQHPGKAPKLMIYDVSKRPSGVPDRFSGSKSGNTASLTISGLQAEDEADYYCCSYAGSYTLLFGGGTKLIVL
Neutralization (Infectious virus; (µg/mL)) [1]: 2.14 µg/mL
Pseudovirus Neturalization [2]: > 50 µg/mL
Pseudovirus Neturalization [3]: 0.774 µg/mL

B12: AB-009251 (antibody, V domains shown)
V domain 1: QVQLVQSGAEVKKPGASVKVSCKTSGYTFTTFYIHWVRQVPGQGLEWMGIINPDGGSTNYAQEFQARVTMTTDTSTSTAYMELSSLRFEDTAVFYCATSLGAPPGLSPRTGPQRRGPPGFDFWGQGTLITVSA
V domain 2: QSVLTQPPSVSGAPGQRVTISCTGSSSNIGAGYDVHWYQQLPGTAPKLLIFDNNNRPSGVPYRFSGSRSGTSASLAITGLQPEDEADYYCQSYDSSLSGRVFGGGTRVTVL
Kd [6]: 9.31 nM
koff [6]: 0.000469 s⁻¹
kon [6]: 50400 M⁻¹ s⁻¹
Kd [7]: 48.1 nM
koff [7]: 0.000544 s⁻¹
kon [7]: 11300 M⁻¹ s⁻¹
OD 450 nm [8]: 0.886 OD

B13: AB-009273 (antibody, V domains shown)
VH: QVQLVQSGAEVKKPGSSVKVSCKASGGTFSSYAISWVRQAPGQGLEWMGGIIPIFGTANYAQKFQGRVTITTDESTSTAYMELSSLRSEDTAVYYCARVGVYDSSGYYFDYWGQGTLVTVSS
VL: EIVLTQSPATLSLSPGERATLSCRASQSVSSYLAWYQQKPGQAPRLLIYDASNRATGIPARFSGSGSGTDFTLTISSLEPEDFAVYYCQQRSNWPPRLTFGGGTKVEIK
Kd (SARS-CoV-2 S2 protein): 6.87 nM
koff (SARS-CoV-2 S2 protein): 0.000148 s⁻¹
kon (SARS-CoV-2 S2 protein): 21500 M⁻¹ s⁻¹

B14: AB-009769 (antibody, V domains shown)
VH: EVQLVESGGGLVQPGGSLRLSCAASGFTFSSYWMSWVRQAPGKGLEWVANIKQDGSEKYYVDSVKGRFTISRDNAKNSLYLQMNSLRAEDTAVYYCARSPEVLWFGDPVLDNWFDPWGQGTLVTVSS
VL: SYELTQPPSVSVSPGQTARITCSGDALPKQYAYWYQQKPGQAPVLVIYKDSERPSGIPERFSGSSSGTTVTLTISGVQAEDEADYYCQSADSSGTYPVVFGGGTKLTVL
Neutralization (Infectious virus; (µg/mL)) [1]: 24.5 µg/mL
Pseudovirus Neturalization [2]: > 50 µg/mL
Pseudovirus Neturalization [3]: > 50 µg/mL

B15: AB-009283 (antibody, V domains shown)
VH: EVQLVESGGGLIQPGGSLRLSCAASGFTVSSNYMSWVRQAPGKGLEWVSVIYSGGSTYYADSVKGRFTISRDNSKNTLYLQMNSLRAEDTAVYYCATSSFDYYYYFMDVWGKGTTVTVSS
VL: SYELTQPPSVSVSPGQTASITCSGDKLGDKYACWYHQKPGQSPVLVIYQDTKRPSGIPERFSASNSGNTATLTISGTQALDEADYYCQAWDSSIVVFGGGTKLTVL
Kd (SARS-CoV-2 S2 protein): 22.7 nM
koff (SARS-CoV-2 S2 protein): 0.000319 s⁻¹
kon (SARS-CoV-2 S2 protein): 14100 M⁻¹ s⁻¹

B16: AB-009614 (antibody, V domains shown)
VH: QVQLVESGGGVVQPGRSLRLSCAASGFTFSSYGMHWVRQAPGKGLEWVAVISYDGSNKYYADSVKGRFTISRDNSKNTLYLQMNSLRAEDTAVYYCAKDQKYYDILTGYYRSTYYYYYYGMDVWGQGTTVTVSS
VL: not shown
Neutralization (Infectious virus; (µg/mL)) [1]: 0.075 µg/mL
Pseudovirus Neturalization [2]: > 50 µg/mL
Pseudovirus Neturalization [3]: 0.142 µg/mL

B17: AB-009281 (antibody, V domains shown)
VH: EVQLVETGGGLIQPGGSLRLSCAASGFTVSSNYMSWVRQAPGKGLEWVSVIYSGGSTYYADSVKGRFTISRDNSKNTLYLQMNSLRAEDTAVYYCARDLYYYGMDVWGQGTTVTVSS
VL: DIQLTQSPSFLSASVGDRVTITCRASQGISSYLAWYQQKPGKAPKLLIYAASTLQSGVPSRFSGSGSGTEFTLTISSLQPEDFATYYCQQLNSYPTFGQGTKVEIK
Neutralization (Infectious virus; (µg/mL)) [1]: 33.7 µg/mL
Pseudovirus Neturalization [2]: > 50 µg/mL
Pseudovirus Neturalization [3]: 0.215 µg/mL

B18: AB-009613 (antibody, V domains shown)
VH: B17 VH with T7S, L99Y, Y100G, Y101D, Y102F, G103Y, M104F, V106Y, T112L
VL: not shown
Kd [4]: 4.26 nM
koff [4]: 0.000313 s⁻¹
kon [4]: 73400 M⁻¹ s⁻¹
Kd [5]: 16.1 nM
koff [5]: 0.00102 s⁻¹
kon [5]: 63600 M⁻¹ s⁻¹

B19: AB-009271 (antibody, V domains shown)
VH: B17 VH with T7S, T28I, L99Y, Y100G, Y101D, Y102F, G103Y, M104F, V106Y, T112L
VL: EIVMTQSPATLSVSPGERATLSCRASQSVSSNLAWYQQKPGQAPRLLIYGASTRATGIPARFSGSGSGTEFTLTISSLQSEDFAVYYCQQYYNWPRTFGQGTKVEIK
Kd [4]: 15.1 nM
koff [4]: 0.00141 s⁻¹
kon [4]: 93200 M⁻¹ s⁻¹
Kd [5]: 55.4 nM
koff [5]: 0.0042 s⁻¹
kon [5]: 75900 M⁻¹ s⁻¹
